Reference: article PMC10393071 (2023)
Changes are numbered by the printed parent chain.

Tests used:
[1] = target: T1, BMPR-1A/BMPR-1B (aortic SMC) (Homo sapiens, UniProt P36894); experiment: FITC-ligand cell membrane binding, Scatchard
T1 chain 1: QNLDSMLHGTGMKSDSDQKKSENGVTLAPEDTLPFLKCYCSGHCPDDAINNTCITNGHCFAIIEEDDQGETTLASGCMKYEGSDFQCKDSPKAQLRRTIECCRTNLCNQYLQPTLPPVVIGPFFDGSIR
T1 chain 2: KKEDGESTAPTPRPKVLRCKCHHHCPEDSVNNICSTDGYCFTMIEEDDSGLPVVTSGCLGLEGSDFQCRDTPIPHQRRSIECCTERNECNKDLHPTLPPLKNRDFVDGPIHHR

[2] = target: T2, BMPR-1A (aortic SMC, BMPR-1B siRNA) (Mus musculus, UniProt P36895); experiment: FITC-ligand cell membrane binding, Scatchard
T2 chain: T1 chain 1 with S16L, S21P, A74T

[3] = target: T3, BMPR-1A/BMPR-1B (aortic SMC) (Mus musculus, UniProt P36895); experiment: FITC-ligand cell membrane binding, Scatchard
T3 chain 1: T1 chain 1 with S16L, S21P, A74T
T3 chain 2: T1 chain 2 with V16I, L51M, N102D, R113K

[4] = target: T4, BMPR-1B (aortic SMC, BMPR-1A siRNA) (Mus musculus, UniProt P36898); experiment: FITC-ligand cell membrane binding, Scatchard
T4 chain: T1 chain 2 with V16I, L51M, N102D, R113K

[5] = target: T5, BMPR-1A (Mus musculus, UniProt P36895); experiment: FITC-ligand binding to transfected 293T, Scatchard
T5 chain: T1 chain 1 with S16L, S21P, A74T

[6] = target: T6, BMPR-2 (Mus musculus, UniProt O35607); experiment: FITC-ligand binding to transfected 293T, Scatchard
T6 chain: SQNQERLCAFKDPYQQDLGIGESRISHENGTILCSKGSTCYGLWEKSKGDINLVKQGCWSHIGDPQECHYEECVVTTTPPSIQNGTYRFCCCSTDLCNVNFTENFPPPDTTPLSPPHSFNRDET

[7] = target: T7, BMPR-1A/BMPR-1B (Mus musculus, UniProt P36895); experiment: FITC-ligand binding to transfected 293T, Scatchard
T7 chain 1: T1 chain 1 with S16L, S21P, A74T
T7 chain 2: T1 chain 2 with V16I, L51M, N102D, R113K

[8] = target: T8, BMPR-1B (Mus musculus, UniProt P36898); experiment: FITC-ligand binding to transfected 293T, Scatchard
T8 chain: T1 chain 2 with V16I, L51M, N102D, R113K

B1: ECP (protein)
chain: RPPQFTRAQWFAIQHISLNPPRCTIAMRAINNYRWRCKNQNTFLRTTFANVVNVCGNQSIRCPHNRTLNNCHRSRFRVPLLHCDLINPGAQNISNCTYADRPGRRFYVVACDNRDPRDSPRYPVVPVHLDTTI
Kd [1]: 14.9 nM

B2: mEar1 (protein)
chain: LGQTPSQKFAIQHINNNTNLQCNVEMMRINRARRTCKGLNTFLHTSFANAVGVCGNPSGLCSDKRSQNCHNSSSRVHITVCNITSRATNYTQCRYQSRRSLEYYTVACDPRTPQDSPMYPVVPVHLDGTF
Kd [2]: 9.14 nM | Kd [3]: 15.8 nM | Kd [4]: 11.1 nM | Kd [5]: 10.6 nM | Kd [6]: 6.09 nM | Kd [7]: 15.5 nM | Kd [8]: 9.45 nM

B3: EDN (protein)
chain: KPPQFTWAQWFETQHINMTSQQCTNAMQVINNYQRRCKNQNTFLLTTFANVVNVCGNPNMTCPSNKTRKNCHHSGSQVPLIHCNLTTPSPQNISNCRYAQTPANMFYIVACDNRDQRRDPPQYPVVPVHLDRII
Kd [1]: 11.6 nM
